# Experimental data published in paper PMC5436651 (PLoS ONE, 2017).
# Changes are numbered by the printed parent chain. In names and notes the source's numbering stands.
# B1: RIP2K_(L294F) (RIP2 kinase domain 1-300 with the spontaneous mutation L294F), crystallised with AMPPCP (domain or fragment)
# chain: GAMAMNGEAICSALPTIPYHKLADLRYLSRGASGTVSSARHADWRVQVAVKHLHIHTPLLDSERKDVLREAEILHKARFSYILPILGICNEPEFLGIVTEYMPNGSLNELLHRKTEYPDVAWPLRFRILHEIALGVNYLHNMTPPLLHHDLKTQNILLDNEFHVKIADFGLSKWRMMSLSQSRSSKSAPEGGTIIYMPPENYEPGQKSRASIKHDIYSYAVITWEVLSRKQPFEDVTNPLQIMYSVSQGHRPVINEESLPYDIPHRARMISLIESGWAQNPDERPSFLKCLIELEPVFRTFEEI
# notes: The methods say the AMPPCP crystals came from RIP2K_(L294F); the results call this structure wild-type RIP2K; no density for the phosphorylation sites; also called RIPK_(L294F); RIP2K-AMPPCP; not shown: His-tag, N-terminal, cleaved
# B2: RIP2K_(K47R) (RIP2 kinase domain 1-300, kinase-dead mutant K47R, not phosphorylated) (domain or fragment, UniProt O43353 1-300, looked up)
# chain: MNGEAICSALPTIPYHKLADLRYLSRGASGTVSSARHADWRVQVAVRHLHIHTPLLDSERKDVLREAEILHKARFSYILPILGICNEPEFLGIVTEYMPNGSLNELLHRKTEYPDVAWPLRFRILHEIALGVNYLHNMTPPLLHHDLKTQNILLDNEFHVKIADFGLSKWRMMSLSQSRSSKSAPEGGTIIYMPPENYEPGQKSRASIKHDIYSYAVITWEVLSRKQPFEDVTNPLQIMYSVSQGHRPVINEESLPYDIPHRARMISLIESGWAQNPDERPSFLKCLIELEPVLRTFEEI
# notes: Not phosphorylated by mass spectrometry; also called Rip2_(K47R)
# B3: RIP2K_(D146N) (RIP2 kinase domain 1-300, kinase-dead mutant D146N, not phosphorylated) (domain or fragment, UniProt O43353 1-300, looked up)
# chain: B2 chain with R47K, D146N
# notes: Not phosphorylated by mass spectrometry; also called RIP2K_(D146N)-STAU; RIP2KD146N-STAU; source: mixed with 0.5 mM staurosporine during dialysis
# B4: RIP2K (kinase domain of Receptor Interacting protein kinase 2, residues 1-300), wild type, phosphorylated (domain or fragment, UniProt O43353 1-300, looked up)
# chain: B2 chain with R47K
# modifications: auto-phosphorylated in vitro: phosphoserine at 174, 176, 178 and at 180 or 181 (a maximum of five phosphorylation sites)
# notes: also called WT RIP2K; RIP2K_(1-300); source: de-phosphorylated with lambda phosphatase and re-phosphorylated before native MS and AUC
# Legend:
# [1] = target: the molecule itself; assay: crystal structure; RIP2K_(L294F) 5 mg/ml with 2 mM AMPPCP and 5 mM MgCl2; sitting drop, 20°C; P4(1)2(1)2, a dimer in the asymmetric unit; 2.0 Å
# [2] = target: the molecule itself; assay: AUC; sedimentation velocity at low protein concentration (3-5 μM); 42,000 r.p.m., 4°C; 20 mM Tris pH 7.5, 50 mM NaCl, 5% glycerol, 250 μM TCEP; monomer to dimer
# [3] = target: the molecule itself; assay: AUC; sedimentation velocity at increased protein concentration (RIP2K at 10 and 18 μM; range tested 4 to 18 μM); 42,000 r.p.m., 4°C; 20 mM Tris pH 7.5, 50 mM NaCl, 5% glycerol, 250 μM TCEP; oligomers beyond the dimer
# [4] = target: the molecule itself; assay: native MS; 3-5 μM protein in 250 mM ammonium acetate with 1 mM DTT, nano-ESI Q-TOF; RIP2K_(D146N) as the staurosporine sample
protein,measurement,setting,value
B1,binding result,[1],binds
B2,stoichiometry N,[2],2
same,stoichiometry N,[3],4
B3,stoichiometry N,[4],2
B4,stoichiometry N,[2],2
